In PMC9482650, “Quantitative fragmentomics allow affinity mapping of interactomes” (Nature Communications, 2022):

How the values were obtained:
Test in all cases: holdup assay
Parameters in all cases: key: below the threshold = too weak to quantify, mostly under pKd 3.1 to 4
ARHGEF11, O15085 = molecular target: T1, ARHGEF11, O15085
T1 sequence (O15085 42-136, limits assumed, looked up): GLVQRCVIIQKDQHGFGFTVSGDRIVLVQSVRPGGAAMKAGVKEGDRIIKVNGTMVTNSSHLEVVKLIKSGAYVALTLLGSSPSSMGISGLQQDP

APBA1_2, Q02410 = molecular target: T2, APBA1_2, Q02410
T2 sequence (Q02410 742-832, limits assumed, looked up): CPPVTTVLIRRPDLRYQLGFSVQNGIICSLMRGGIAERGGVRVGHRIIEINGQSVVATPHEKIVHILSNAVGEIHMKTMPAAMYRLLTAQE

MAST1, Q9Y2H9 = molecular target: MAST1, Q9Y2H9
SNX27, Q96L92 = molecular target: SNX27, Q96L92
NHERF4_4, Q86UT5 = molecular target: NHERF4_4, Q86UT5
LAP2, Q96RT1 = molecular target: LAP2, Q96RT1
MAGI3_2, Q5TCQ9 = molecular target: MAGI3_2, Q5TCQ9
FRMPD1, Q5SYB0 = molecular target: T3, FRMPD1, Q5SYB0
T3 sequence (Q5SYB0 52-145, limits assumed, looked up): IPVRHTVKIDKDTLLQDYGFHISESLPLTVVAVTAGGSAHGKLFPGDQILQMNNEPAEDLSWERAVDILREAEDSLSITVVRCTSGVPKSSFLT

GRID2IP_2, A4D2P6 = molecular target: GRID2IP_2, A4D2P6
NOS1, P29475 = molecular target: NOS1, P29475
GORASP2, Q9H8Y8 = molecular target: GORASP2, Q9H8Y8
ARHGAP21, Q5T5U3 = molecular target: T4, ARHGAP21, Q5T5U3
T4 sequence (Q5T5U3 45-169, limits assumed, looked up): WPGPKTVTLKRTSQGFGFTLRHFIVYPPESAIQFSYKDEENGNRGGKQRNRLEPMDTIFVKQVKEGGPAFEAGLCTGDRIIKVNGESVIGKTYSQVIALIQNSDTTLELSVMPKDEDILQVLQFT

FRMPD3, Q5JV73 = molecular target: FRMPD3, Q5JV73
GRIP2_3, Q9C0E4 = molecular target: GRIP2_3, Q9C0E4
MAGI2_5, Q86UL8 = molecular target: MAGI2_5, Q86UL8
NHERF2_2, Q15599 = molecular target: NHERF2_2, Q15599
DLG4_3, P78352 = molecular target: DLG4_3, P78352
LIN7C, Q9NUP9 = molecular target: T5, LIN7C, Q9NUP9
T5 sequence (Q9NUP9 88-185, limits assumed, looked up): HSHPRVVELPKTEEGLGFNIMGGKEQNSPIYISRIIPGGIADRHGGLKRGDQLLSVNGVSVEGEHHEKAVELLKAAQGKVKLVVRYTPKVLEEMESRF

TJP3_3, O95049 = molecular target: T6, TJP3_3, O95049
T6 sequence (O95049 375-456, limits assumed, looked up): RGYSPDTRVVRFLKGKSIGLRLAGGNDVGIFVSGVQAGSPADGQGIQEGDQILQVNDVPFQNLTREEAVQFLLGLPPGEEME

Inadl_1, Q8NI35 = molecular target: Inadl_1, Q8NI35
SNTG2, Q9NY99 = molecular target: T7, SNTG2, Q9NY99
T7 sequence (Q9NY99 68-166, limits assumed, looked up): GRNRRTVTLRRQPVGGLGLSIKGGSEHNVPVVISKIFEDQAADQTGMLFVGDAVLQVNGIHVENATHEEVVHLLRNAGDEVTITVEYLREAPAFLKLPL

SCRIB_3, Q14160 = molecular target: SCRIB_3, Q14160
PDZD2_2, O15018 = molecular target: T8, PDZD2_2, O15018
T8 sequence (O15018 329-429, limits assumed, looked up): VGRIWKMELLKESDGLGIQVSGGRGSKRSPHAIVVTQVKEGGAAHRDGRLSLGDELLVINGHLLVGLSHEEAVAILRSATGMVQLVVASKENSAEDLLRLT

APBA1_1, Q02410 = molecular target: T9, APBA1_1, Q02410
T9 sequence (Q02410 651-752, limits assumed, looked up): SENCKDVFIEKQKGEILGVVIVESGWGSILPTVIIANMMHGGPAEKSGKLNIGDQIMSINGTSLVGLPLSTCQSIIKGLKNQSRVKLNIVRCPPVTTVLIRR

TX1BP3, O14907 = molecular target: T10, TX1BP3, O14907
T10 sequence (O14907 10-122, limits assumed, looked up): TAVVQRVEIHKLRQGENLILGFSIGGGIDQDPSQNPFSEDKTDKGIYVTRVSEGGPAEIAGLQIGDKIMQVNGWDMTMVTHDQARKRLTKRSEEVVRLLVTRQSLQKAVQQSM

DLG2_3, Q15700 = molecular target: DLG2_3, Q15700
DFNB31_3, Q9P202 = molecular target: T11, DFNB31_3, Q9P202
T11 sequence (Q9P202 811-907, limits assumed, looked up): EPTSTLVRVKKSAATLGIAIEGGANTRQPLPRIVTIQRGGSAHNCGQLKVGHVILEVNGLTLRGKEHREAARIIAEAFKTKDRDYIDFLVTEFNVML

[1] = plain residues with an end cap or a label only (N-terminal biotin on a linker: ado-ado, ttds)
[2] = plain residues with an end cap or a label only (N-terminal biotin on a linker: ttds)
[3] = plain residues with an end cap or a label only (N-terminal biotin on a linker: ahx)

MAGI2_5, Q86UL8, sequence (Q86UL8 915-1017): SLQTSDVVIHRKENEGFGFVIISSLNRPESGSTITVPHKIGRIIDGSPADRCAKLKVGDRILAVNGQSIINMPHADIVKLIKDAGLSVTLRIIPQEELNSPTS
NHERF2_2, Q15599, sequence (Q15599 142-238): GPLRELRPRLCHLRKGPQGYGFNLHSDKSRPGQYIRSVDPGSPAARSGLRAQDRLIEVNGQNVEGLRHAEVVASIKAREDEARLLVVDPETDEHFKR
FRMPD3, Q5JV73, sequence (Q5JV73 12-100): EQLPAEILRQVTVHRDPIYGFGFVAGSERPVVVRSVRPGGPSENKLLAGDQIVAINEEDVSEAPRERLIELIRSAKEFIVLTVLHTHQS
DLG4_3, P78352, sequence (P78352 306-403): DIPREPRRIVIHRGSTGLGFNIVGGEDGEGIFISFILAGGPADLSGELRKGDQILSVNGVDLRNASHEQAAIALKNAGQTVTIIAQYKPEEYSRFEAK
NOS1, P29475, sequence (P29475 9-101): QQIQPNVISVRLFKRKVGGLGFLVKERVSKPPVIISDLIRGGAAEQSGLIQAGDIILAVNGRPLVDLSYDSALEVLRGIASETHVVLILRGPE
GRIP2_3, Q9C0E4, sequence (Q9C0E4 238-339): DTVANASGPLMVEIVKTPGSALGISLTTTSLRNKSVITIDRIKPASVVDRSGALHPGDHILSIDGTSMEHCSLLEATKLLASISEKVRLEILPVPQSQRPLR
Inadl_1, Q8NI35, sequence (Q8NI35 113-229): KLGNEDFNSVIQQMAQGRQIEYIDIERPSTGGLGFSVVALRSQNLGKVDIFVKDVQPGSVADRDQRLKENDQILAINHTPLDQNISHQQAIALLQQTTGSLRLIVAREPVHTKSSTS
NHERF4_4, Q86UT5, sequence (Q86UT5 464-550): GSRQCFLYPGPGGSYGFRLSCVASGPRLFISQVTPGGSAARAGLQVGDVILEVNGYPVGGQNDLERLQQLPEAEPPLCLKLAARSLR
SCRIB_3, Q14160, sequence (Q14160 999-1103): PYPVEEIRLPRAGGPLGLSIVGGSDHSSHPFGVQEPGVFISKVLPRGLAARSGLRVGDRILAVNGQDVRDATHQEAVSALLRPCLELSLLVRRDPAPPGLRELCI
MAST1, Q9Y2H9, sequence (Q9Y2H9 962-1065): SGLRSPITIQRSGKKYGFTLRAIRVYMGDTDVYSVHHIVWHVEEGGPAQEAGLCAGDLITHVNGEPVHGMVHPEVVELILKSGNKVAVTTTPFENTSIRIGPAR
MAGI3_2, Q5TCQ9, sequence (Q5TCQ9 398-503): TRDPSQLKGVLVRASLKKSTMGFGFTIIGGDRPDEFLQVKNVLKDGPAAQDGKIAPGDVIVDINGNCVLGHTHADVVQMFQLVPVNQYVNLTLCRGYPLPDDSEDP
GRID2IP_2, A4D2P6, sequence (A4D2P6 272-370): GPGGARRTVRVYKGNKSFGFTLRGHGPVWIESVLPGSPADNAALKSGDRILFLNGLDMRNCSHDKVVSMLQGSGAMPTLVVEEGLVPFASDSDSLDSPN
LAP2, Q96RT1, sequence (Q96RT1 other isoform, or with tags, fused parts or gaps): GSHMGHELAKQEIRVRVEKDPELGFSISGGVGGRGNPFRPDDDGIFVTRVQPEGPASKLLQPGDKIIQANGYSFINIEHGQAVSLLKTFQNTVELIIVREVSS

B1: KCNA4, P22459 (peptide)
chain: SNAKAVETDV
B1 was tested, and the pKd (ARHGEF11, O15085; [1]) was 3.59, the pKd (APBA1_2, Q02410; [1]) was 3.5 and the pKd (MAST1, Q9Y2H9; [1]) was 4.32. For the same binder, the pKd (SNX27, Q96L92; [1]) was “below the threshold”, the pKd (NHERF4_4, Q86UT5; [1]) was “below the threshold” and the pKd (LAP2, Q96RT1; [1]) was 4.32. For the same binder, the pKd (MAGI3_2, Q5TCQ9; [1]) was 3.9, the pKd (FRMPD1, Q5SYB0; [1]) was “below the threshold” and the pKd (GRID2IP_2, A4D2P6; [1]) was “below the threshold”. The pKd (NOS1, P29475; [1]) was 3.48, the pKd (GORASP2, Q9H8Y8; [1]) was “below the threshold” and the pKd (ARHGAP21, Q5T5U3; [1]) was “below the threshold”. For the same binder, the pKd (FRMPD3, Q5JV73; [1]) was “below the threshold”, the pKd (GRIP2_3, Q9C0E4; [1]) was “below the threshold” and the pKd (MAGI2_5, Q86UL8; [1]) was “below the threshold”. The pKd (NHERF2_2, Q15599; [1]) was 3.59, the pKd (DLG4_3, P78352; [1]) was “below the threshold” and the pKd (LIN7C, Q9NUP9; [1]) was “below the threshold”. The pKd (TJP3_3, O95049; [1]) was “below the threshold”, the pKd (Inadl_1, Q8NI35; [1]) was “below the threshold” and the pKd (SNTG2, Q9NY99; [1]) was 4.28. For the same binder, the pKd (SCRIB_3, Q14160; [1]) was 4.8, the pKd (PDZD2_2, O15018; [1]) was 4.32 and the pKd (APBA1_1, Q02410; [1]) was “below the threshold”. The pKd (TX1BP3, O14907; [1]) was 4.49, the pKd (DLG2_3, Q15700; [1]) was “below the threshold” and the pKd (DFNB31_3, Q9P202; [1]) was “below the threshold”.

B2: SLC15A5, A6NIM6 (peptide)
chain: SSIDLWETAL
B2 gave a pKd (ARHGEF11, O15085; [2]) of 5.24, a pKd (APBA1_2, Q02410; [2]) of 4.29 and a pKd (MAST1, Q9Y2H9; [2]) of 5.45. It also gave a pKd (SNX27, Q96L92; [2]) of 5.92, a pKd (NHERF4_4, Q86UT5; [2]) of 4.4 and a pKd (LAP2, Q96RT1; [2]) of 4.9. The pKd (MAGI3_2, Q5TCQ9; [2]) was 3.81, the pKd (FRMPD1, Q5SYB0; [2]) was “below the threshold” and the pKd (GRID2IP_2, A4D2P6; [2]) was 4.54. For the same binder, the pKd (NOS1, P29475; [2]) was 4.36, the pKd (GORASP2, Q9H8Y8; [2]) was “below the threshold” and the pKd (ARHGAP21, Q5T5U3; [2]) was 4.55. The pKd (FRMPD3, Q5JV73; [2]) was 4.31, the pKd (GRIP2_3, Q9C0E4; [2]) was “below the threshold” and the pKd (MAGI2_5, Q86UL8; [2]) was 4.97. The pKd (NHERF2_2, Q15599; [2]) was 5.41, the pKd (DLG4_3, P78352; [2]) was “below the threshold” and the pKd (LIN7C, Q9NUP9; [2]) was 5.21. For the same binder, the pKd (TJP3_3, O95049; [2]) was “below the threshold”, the pKd (Inadl_1, Q8NI35; [2]) was “below the threshold” and the pKd (SNTG2, Q9NY99; [2]) was 5.2. For the same binder, the pKd (SCRIB_3, Q14160; [2]) was 5.71, the pKd (PDZD2_2, O15018; [2]) was 4.11 and the pKd (APBA1_1, Q02410; [2]) was “below the threshold”. For the same binder, the pKd (TX1BP3, O14907; [2]) was 5.24, the pKd (DLG2_3, Q15700; [2]) was 3.73 and the pKd (DFNB31_3, Q9P202; [2]) was “below the threshold”.

B3: NHERF1, O14745 (peptide)
chain: SKKNELFSNL
B3 was tested, and the pKd (ARHGEF11, O15085; [3]) was “below the threshold”, the pKd (APBA1_2, Q02410; [3]) was 3.48 and the pKd (MAST1, Q9Y2H9; [3]) was 3.6. The pKd (SNX27, Q96L92; [3]) was “below the threshold”, the pKd (NHERF4_4, Q86UT5; [3]) was “below the threshold” and the pKd (LAP2, Q96RT1; [3]) was “below the threshold”. For the same binder, the pKd (MAGI3_2, Q5TCQ9; [3]) was “below the threshold”, the pKd (FRMPD1, Q5SYB0; [3]) was “below the threshold” and the pKd (GRID2IP_2, A4D2P6; [3]) was “below the threshold”. For the same binder, the pKd (NOS1, P29475; [3]) was “below the threshold”, the pKd (GORASP2, Q9H8Y8; [3]) was “below the threshold” and the pKd (ARHGAP21, Q5T5U3; [3]) was “below the threshold”. For the same binder, the pKd (FRMPD3, Q5JV73; [3]) was “below the threshold”, the pKd (GRIP2_3, Q9C0E4; [3]) was “below the threshold” and the pKd (MAGI2_5, Q86UL8; [3]) was “below the threshold”. For the same binder, the pKd (NHERF2_2, Q15599; [3]) was “below the threshold”, the pKd (DLG4_3, P78352; [3]) was “below the threshold” and the pKd (LIN7C, Q9NUP9; [3]) was “below the threshold”. For the same binder, the pKd (TJP3_3, O95049; [3]) was “below the threshold”, the pKd (Inadl_1, Q8NI35; [3]) was “below the threshold” and the pKd (SNTG2, Q9NY99; [3]) was “below the threshold”. The pKd (SCRIB_3, Q14160; [3]) was “below the threshold”, the pKd (PDZD2_2, O15018; [3]) was 4.38 and the pKd (APBA1_1, Q02410; [3]) was “below the threshold”. The pKd (TX1BP3, O14907; [3]) was “below the threshold”, the pKd (DLG2_3, Q15700; [3]) was “below the threshold” and the pKd (DFNB31_3, Q9P202; [3]) was “below the threshold”.
